Read-outs that look alike come from different tables or passages of the source.
Assays:
[1] = target: T1, murine IL-21R expressed on cells (murine, UniProt Q9JHX3 20-529); experiment: cell-based or functional assay
[2] = target: T2, human IL-21R expressed on cells (human, UniProt Q9HBE5 20-538); experiment: cell-based or functional assay
[3] = target: T2, human IL-21R expressed on cells; experiment: cell ELISA on transfected CHO cells, 13 nM IgG
Protocol: (§1) A subset of binding proteins was tested for binding to rat, cynomolgus monkey, human IL-21R, or human IL-2R-γ common subunit expressed transiently on the surfaces of CHO-PA-Dukx cells. Cells were transfected 48 hr prior to the assay. On the day of the assay, cells were washed gently 5× in PBS containing 0.9 mM CaCl₂ and 0.45 mM MgCl₂ (PBS/CaMg) on an automated plate washer (Titertek, Huntsville, Ala.), and blocked for 1 hr at RT in PBS/CaMg/5% nonfat dry milk. Conditioned media from transiently expressed anti-IL-21R IgGs were serially diluted in blocking buffer and added to the cells in the blocked plates for 1 hr at RT. Cells were washed 5× with PBS/CaMg and then incubated with horseradish peroxidase-conjugated anti-human IgG for 1 hr at RT. Cells were then washed 10× in PBS/CaMg and all of the wash buffer was removed. Cells were incubated with 100 μl TMB until the color reaction reached saturation, stopped with 100 μl of 0.18 M H₂SO₄, and read at A450 on a Perkin Elmer ENVISION™ plate reader.

[4] = target: T3, cynomolgus monkey IL-21R expressed on CHO cells (cynomolgus monkey); experiment: cell ELISA on transfected CHO cells, 13 nM IgG
T3 construct: whole, on cells
Protocol: as §1

[5] = target: T4, rat IL-21R expressed on cells (rat); experiment: cell ELISA on transfected CHO cells, 13 nM IgG
T4 construct: whole, on cells; Transiently transfected CHO-PA-Dukx cells
Protocol: as §1

[6] = target: T2, human IL-21R expressed on cells; experiment: cell ELISA: CHO cells transiently expressing the receptor, antibody in conditioned medium, HRP anti-human IgG, A450
Protocol: (§2) FIG. 6 depicts the binding of 21 anti-IL-21R IgGs to CHO cells transiently expressing human IL-21R (FIGS. 6a-c), rat IL-21R (FIGS. 6d-f), cynomolgus monkey IL-21R (FIGS. 6g-i), and human gamma common chain (FIGS. 6j-l). CHO cells were transiently transfected with IL-21R or the control gamma common chain, and binding was detected with HRP-conjugated anti-human IgG in a cell-based ELISA.
as §1

[7] = target: T5, human gamma common chain expressed on CHO cells (human, UniProt P31785 23-369); experiment: cell ELISA on transfected CHO cells, 13 nM IgG
T5 construct: whole, on cells; Control protein; also called human IL-2R-γ common subunit; human gamma (γ) common chain
T5 sequence (looked up): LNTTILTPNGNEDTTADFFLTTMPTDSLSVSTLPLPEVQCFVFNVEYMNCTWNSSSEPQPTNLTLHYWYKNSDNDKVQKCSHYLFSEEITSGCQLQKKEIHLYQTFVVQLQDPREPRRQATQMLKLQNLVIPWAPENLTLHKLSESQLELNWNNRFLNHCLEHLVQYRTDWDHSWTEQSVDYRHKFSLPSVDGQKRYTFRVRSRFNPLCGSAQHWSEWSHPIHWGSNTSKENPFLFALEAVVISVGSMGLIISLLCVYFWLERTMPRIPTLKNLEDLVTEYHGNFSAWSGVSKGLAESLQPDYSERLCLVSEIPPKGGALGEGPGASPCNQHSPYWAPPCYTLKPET
Protocol: as §1

[8] = target: T2, human IL-21R expressed on cells; experiment: cell-based or functional assay; remark: listed apart in the source
[9] = target: T1, murine IL-21R expressed on cells; experiment: cell-based or functional assay; remark: listed apart in the source
human IL-2Rβ = target: T6, human IL-2Rβ (human, UniProt P14784 27-239); experiment: BIACORE: antibody captured on anti-human IgG, 50 nM analyte injected
T6 construct: Bought
T6 sequence (looked up): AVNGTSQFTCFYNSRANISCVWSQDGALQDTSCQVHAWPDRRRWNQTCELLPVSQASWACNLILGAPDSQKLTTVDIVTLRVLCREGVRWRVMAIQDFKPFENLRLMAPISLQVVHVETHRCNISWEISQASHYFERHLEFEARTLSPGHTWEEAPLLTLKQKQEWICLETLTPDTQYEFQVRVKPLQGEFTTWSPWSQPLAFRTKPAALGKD
Protocol: (§3) The specificity of binding of a subset of transiently expressed anti-IL-21R binding proteins (here antibodies) was tested on a BIACORE™ 2000 surface plasmon resonance instrument. Anti-human-IgG, anti-murine immunoglobulin antibodies, and murine IL-21R-H/F were immobilized onto a research-grade carboxymethyl-dextran chip (CM5) using standard amine coupling. The sensor chip surface was activated with EDC/NHS for 7 min at a flow rate of 20 μl/min. The first flow cell was used as reference surface to correct for bulk refractive index, matrix effects, and nonspecific binding. […] Remaining activated groups were blocked with 1.0 M ethanolamine (pH 8.0). The molecular weights of the anti-human IgG and the anti-murine IgG were both 150 kD, and the molecular weight of the IL-21R monomer was 27 kD.
(§4) Conditioned media containing anti-IL-21R antibodies and antibody controls (murine anti-human IL-2Rβ and murine anti-human IL-4R(R&D Systems, Minneapolis, Minn.); human anti-human IL-13 (Wyeth, Cambridge, Mass.)) were diluted in HBS/EP buffer supplemented with 0.2% bovine serum and injected onto all four flow cells of the BIACORE™ chip, capturing 500-700 (RU) of antibody on the species-appropriate capture antibody. Following a 5 sec washing period, 50 nM solutions of a positive control protein (murine IL-21R-H/F), two human proteins related to IL-21R (human IL-2Rβ and human sIL-4R(R&D Systems)), or an unrelated His/FLAG-tagged protein (human IL-13-H/F), were injected over the captured antibodies on the chip. The association and dissociation phases were monitored for 120 and 180 sec, respectively, followed by two 5 μl injections of glycine (pH 1.5) to regenerate a fully active capturing surface. All binding experiments were done at 25° C. in HBS/EP buffer. Blank and buffer effects were subtracted for each sensorgram using double referencing.

human soluble IL-4R = target: T7, human soluble IL-4R (human, UniProt P24394 26-231, limits assumed); experiment: as above
T7 construct: soluble; also called human sIL-4R
T7 sequence (P24394 26-231 limits assumed): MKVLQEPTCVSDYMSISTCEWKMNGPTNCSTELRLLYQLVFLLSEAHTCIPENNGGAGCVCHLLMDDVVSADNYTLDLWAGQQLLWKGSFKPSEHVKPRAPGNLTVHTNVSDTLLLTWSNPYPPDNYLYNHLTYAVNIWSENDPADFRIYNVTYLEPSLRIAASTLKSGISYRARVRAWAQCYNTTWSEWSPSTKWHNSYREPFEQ
Protocol: as §3, §4

human IL-13-His/FLAG = target: T8, human IL-13-His/FLAG (human, UniProt P35225 35-146, limits assumed); experiment: as above
T8 construct: Unrelated His/FLAG-tagged control; also called human IL-13-H/F
T8 sequence (P35225 35-146 limits assumed): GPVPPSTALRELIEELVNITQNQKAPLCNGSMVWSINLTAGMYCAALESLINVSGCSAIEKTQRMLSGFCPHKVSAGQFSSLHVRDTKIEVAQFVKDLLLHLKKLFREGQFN
Protocol: as §3, §4

[10] = target: T3, cynomolgus monkey IL-21R expressed on …; experiment: cell ELISA: CHO cells transiently expressing the receptor, antibody in conditioned medium, HRP anti-human IgG, A450
Protocol: as §1

[11] = target: T2, human IL-21R expressed on cells; experiment: cell-based or functional assay; remark: listed apart in the source
[12] = target: T4, rat IL-21R expressed on cells; experiment: cell-based or functional assay
[13] = target: T3, cynomolgus monkey IL-21R expressed on …; experiment: cell ELISA: CHO cells transiently expressing the receptor, antibody in conditioned medium, HRP anti-human IgG, A450; remark: listed apart in the source
Protocol: as §2, §1

murine IL-21 = murine IL-21 (murine, UniProt Q9ES17 18-146); experiment: cell-based or functional assay

T2 sequence (Q9HBE5 20-538 limits assumed): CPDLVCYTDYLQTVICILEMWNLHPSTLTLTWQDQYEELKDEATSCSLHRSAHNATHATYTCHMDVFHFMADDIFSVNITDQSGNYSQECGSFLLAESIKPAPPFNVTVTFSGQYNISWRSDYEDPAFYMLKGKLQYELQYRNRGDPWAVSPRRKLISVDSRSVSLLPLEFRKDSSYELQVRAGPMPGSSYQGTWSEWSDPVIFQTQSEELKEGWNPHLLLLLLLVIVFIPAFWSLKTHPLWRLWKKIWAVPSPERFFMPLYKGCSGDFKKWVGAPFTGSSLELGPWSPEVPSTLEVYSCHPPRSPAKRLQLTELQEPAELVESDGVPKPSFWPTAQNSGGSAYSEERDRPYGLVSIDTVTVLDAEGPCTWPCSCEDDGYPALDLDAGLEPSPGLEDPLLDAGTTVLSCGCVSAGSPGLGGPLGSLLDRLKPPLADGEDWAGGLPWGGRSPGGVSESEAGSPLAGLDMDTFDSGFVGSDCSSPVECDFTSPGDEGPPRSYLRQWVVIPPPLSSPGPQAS
T1 sequence (Q9JHX3 20-529 limits assumed): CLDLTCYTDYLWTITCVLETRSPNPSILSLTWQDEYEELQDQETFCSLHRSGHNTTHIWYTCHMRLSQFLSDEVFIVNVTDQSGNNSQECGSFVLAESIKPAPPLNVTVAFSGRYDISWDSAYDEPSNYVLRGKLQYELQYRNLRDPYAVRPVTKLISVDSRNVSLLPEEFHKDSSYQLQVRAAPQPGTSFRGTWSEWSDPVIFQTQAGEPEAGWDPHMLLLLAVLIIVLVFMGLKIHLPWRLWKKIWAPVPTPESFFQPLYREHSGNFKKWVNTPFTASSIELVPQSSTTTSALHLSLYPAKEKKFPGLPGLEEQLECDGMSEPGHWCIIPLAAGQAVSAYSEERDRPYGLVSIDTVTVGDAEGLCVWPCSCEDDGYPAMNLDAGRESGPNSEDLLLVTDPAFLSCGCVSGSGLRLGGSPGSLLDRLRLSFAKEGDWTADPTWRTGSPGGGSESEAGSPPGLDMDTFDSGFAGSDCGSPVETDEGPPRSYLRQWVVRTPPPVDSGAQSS

Binder	Murine IL-21R-BaF3 Proliferation IC50 [1]	Human IL-21R-BaF3 Proliferation IC50 [2]	Human IL-21R-TF1 Proliferation IC50 [2]	A450 at 13 nM Ab in cell ELISA [3]	A450 at 13 nM Ab in cell ELISA [4]	A450 at 13 nM Ab in cell ELISA [5]	EC50 (read off the curve) [6]	A450 at 13 nM Ab in cell ELISA [7]	Neutralization of T cell Proliferation IC50 (nM), human primary CD4+ T cells [8]	Neutralization of T cell Proliferation IC50 (nM), murine primary CD8+ T cells [9]	binding result (human IL-2Rβ)	binding result (human soluble IL-4R)	binding result (human IL-13-His/FLAG)	EC50 (read off the curve) [10]	Neutralization of B cell proliferation IC50 [11]	IC50 (nM) experiment 1, rat T cell proliferation [12]	IC50 (nM) experiment 2, rat T cell proliferation [12]	EC50 (read off the curve) [13]	Murine IL-21R-BaF3 Neutralization IC50 (murine IL-21)
AbD (antibody, human IgG1, V domains shown, Full-length human IgG1 / human lambda, transient, conditioned medium; Framework limits derived; also called VHP/VL13) VH: QVQLQESGPGLVKPSETLSLTCAVSGYSISSGYYWGWIRQPPGKGLEWIGSISHTGNTYYNPPLKSRVTISVDTSKNQFSLKLSSVTAADTAVYYCARGGGISRPEYWGQGTLVTVSS VL: SSELTQDPAVSVALGQTVRITCQGDSLRTYYASWYQQKPGQAPVLVIYGKHKRPSGIPDRFSGSSSGNTASLTITGAQAEDEADYYCVTRNRYGNPHVLFGGGTQLTVL	0.01 nM	0.91 nM	2.67 nM	1.25 A450	1.38 A450	0.874 A450	~1 nM	–	–	–	–	–	–	–	–	–	–	–	–
AbO (antibody, human IgG1, V domains shown, Human IgG1 triple-mutant (L234A, L235A, G237A); Framework limits derived; also called VHP/VL16; VHPTM/VL16) VH: QVQLQESGPGLVKPSETLSLTCAVSGYSISSGYYWGWIRQPPGKGLEWIGSISHTGNTYYNPPLKSRVTISVDTSKNQFSLKLSSVTAADTAVYYCARGGGISRPEYWGQGTLVTVSS VL: SSELTQDPAVSVALGQTVRITCQGDSLRTYYASWYQQKPGQAPVLVIYGKHKRPSGIPDRFSGSSSGNTASLTITGAQAEDEADYYCVTRSAKGNPHVLFGGGTQLTVL	0.065 nM	0.52 nM	2.91 nM	1.11 A450	1.36 A450	1.1 A450	~0.3 nM	0.108 A450	0.06 nM	4.92 nM	no binding (tested: 50 nM)	no binding (tested: 50 nM)	no binding (tested: 50 nM)	–	–	–	–	–	–
AbL (antibody, human IgG1, V domains shown, Full-length human IgG1 / human lambda, transient, conditioned medium; Framework limits derived; also called VH3/VL13) VH: QVQLQESGPGLVKPSETLSLTCAVSGYSISSGYYWGWIRQPPGKGLEWIGSISHTGNTYYNPPLKSRVTISVDTSKNQFSLKLSSVTAADTAVYYCARFMGFGRPEYWGQGTLVTVSS VL: SSELTQDPAVSVALGQTVRITCQGDSLRTYYASWYQQKPGQAPVLVIYGKHKRPSGIPDRFSGSSSGNTASLTITGAQAEDEADYYCVTRNRYGNPHVLFGGGTQLTVL	0.227 nM	0.68 nM	4.25 nM	1.45 A450	1.51 A450	1.26 A450	–	–	–	–	–	–	–	~0.8 nM	–	–	–	–	–
AbQ (antibody, human IgG1, V domains shown, Purified form: human IgG1 double-mutant (L234A, G237A); Framework limits derived; also called VH3/VL2; VH3DM/VL2) VH: QVQLQESGPGLVKPSETLSLTCAVSGYSISSGYYWGWIRQPPGKGLEWIGSISHTGNTYYNPPLKSRVTISVDTSKNQFSLKLSSVTAADTAVYYCARFMGFGRPEYWGQGTLVTVSS VL: SSELTQDPAVSVALGQTVRITCQGDSLRTYYASWYQQKPGQAPVLVIYGKHKRPSGIPDRFSGSSSGNTASLTITGAQAEDEADYYCVARSVVGNPHVLFGGGTQLTVL	0.153 nM	0.68 nM	4.62 nM	1.25 A450	1.31 A450	1.16 A450	–	0.125 A450	0.08 nM	0.85 nM	no binding (tested: 50 nM)	no binding (tested: 50 nM)	no binding (tested: 50 nM)	~0.6 nM	0.16 nM	–	–	–	–
AbU (antibody, human IgG1, V domains shown, Human IgG1 triple-mutant (L234A, L235A, G237A); Framework limits derived; also called VHP/VL25; VHPTM/VL25) VH: QVQLQESGPGLVKPSETLSLTCAVSGYSISSGYYWGWIRQPPGKGLEWIGSISHTGNTYYNPPLKSRVTISVDTSKNQFSLKLSSVTAADTAVYYCARGGGISRPEYWGQGTLVTVSS VL: SSELTQDPAVSVALGQTVRITCQGDSLRTYYASWYQQKPGQAPVLVIYGKHKRPSGIPDRFSGSSSGNTASLTITGAQAEDEADYYCTTRSNKGNPHVLFGGGTQLTVL	0.184 nM	0.73 nM	3.13 nM	1.29 A450	1.31 A450	0.927 A450	–	0.104 A450	0.03 nM	1.79 nM	no binding (tested: 50 nM)	no binding (tested: 50 nM)	no binding (tested: 50 nM)	–	0.13 nM	173 nM	105 nM	~0.8 nM	–
murine IL-21R-Fc (Fc fusion, not shown: a dimerising Fc or GST) not shown	–	–	–	–	–	–	–	–	–	–	–	–	–	–	–	–	–	–	0.04 nM

Reference: patent US20090298167A1 (Pfizer, published 2009)
